Test results published in paper PMC12407086.

Legend:
[1] = biological target: recombinant human desmoglein-1 (DSG-1), purified, full-length (human) (UniProt Q02413); assay: single-molecule force spectroscopy (AFM); DSG-1 tips against L. lactis SdrD^(+) after EDTA, with CaCl2 added to 10 mM (15 min incubation)
[2] = biological target: recombinant human desmoglein-1 (DSG-1), purified, full-length (human) (UniProt Q02413); assay: dynamic force spectroscopy (AFM, SMFS); DSG-1 tips against L. lactis SdrD^(+); retraction speed 0.5, 1, 3, 5 and 10 μm s^−1; Bell-Evans fit; only adhesion forces of >1000 pN considered
[3] = biological target: recombinant human desmoglein-1 (DSG-1), purified, full-length (human) (UniProt Q02413); assay: single-molecule force spectroscopy (AFM); AFM tips functionalized with DSG-1 against living L. lactis SdrD^(+) on a polystyrene dish; PBS, room temperature; approach and retraction 1 μm s^−1, applied force 250 pN, dwell time 0 s
[4] = biological target: recombinant human desmoglein-1 (DSG-1), purified, full-length (human) (UniProt Q02413); assay: single-molecule force spectroscopy (AFM); DSG-1 tips against L. lactis SdrD^(+) in the presence of 1 mM EDTA (15 min incubation)
[5] = biological target: pPROX^∗ peptide (cysteine-bearing peptide based on the p_(PROX) sequence of DSG-1) (human); assay: single-molecule force spectroscopy (AFM); AFM tips carrying pPROX^∗ by a PEG27-maleimide linker against living L. lactis SdrD^(+); pulling speed 1 μm s^−1
[6] = biological target: recombinant human desmoglein-1 (DSG-1), purified, full-length (human) (UniProt Q02413); assay: single-molecule force spectroscopy (AFM); AFM tips functionalized with DSG-1 against living S. aureus AD08

pPROX^∗ peptide (cysteine-bearing peptide based on the p_(PROX) sequence of DSG-1) (human), sequence (Q02413 other isoform, or with tags, fused parts or gaps): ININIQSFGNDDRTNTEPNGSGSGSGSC

Row | Substance | adhesion force with 10 mM Ca^2+ [1] | koff [2] | adhesion (rupture) force [3] | binding probability [3] | adhesion force with 1 mM EDTA [4] | adhesion frequency [5] | rupture force [5] | rupture force (main peak) [6]
1 | serine-aspartate repeat protein D (SdrD) expressed on the surface of Lactococcus lactis MG1363 (pKS80::sdrD) (from UniProt Q2G0L4 36-1315) (natural protein) | 2600 pN | 1.4e-07 s⁻¹ | 2080 pN | 49% | 2160 pN | 33% | 1810 pN | –
2 | SdrD on the surface of Staphylococcus aureus AD08 (clinical isolate from an infected skin lesion of a patient with AD) (from UniProt Q2G0L4 36-1315) (natural protein) | – | – | – | – | – | – | – | 1550 pN
